Source: PMC8691596
Residue numbers refer to the chain shown, from its start. Names may count otherwise. Like-named read-outs stand apart in the source and are kept apart here. One block for each binder: values may come before it.

What was measured:
[1] = biological target: anti-CD20 IgG1 L234S/L235T/G236R (human); assay: SPR; antibody captured by biotin-labelled anti-human κ light chain on streptavidin CM5; soluble Fcγ receptor injected at one concentration ([…] to 18 μM); HBS-EP+ pH 7.4, 25°C; Biacore 8K
[2] = biological target: human FcγRIIIa (CD16a) V158 allele, histidine-tagged recombinant (human) (UniProt P08637); assay: SPR; His-tagged Fc receptor captured by anti-histidine antibody immobilised on CM5; antibody injected at 100 μg/mL for 1 min; response about 5 s before end of injection, blank subtracted; 25°C, HBS-EP+; Biacore T200
[3] = biological target: human FcγRIIIa (CD16a) F158 allele, histidine-tagged recombinant (human) (UniProt P08637); assay: as above
[4] = biological target: rat FcγRI (CD64), histidine-tagged recombinant (rat); assay: as above
[5] = biological target: anti-CD20 IgG1 L234S/L235T/G236R (human); assay: SPR; antibody captured by biotin-labelled anti-human κ light chain on streptavidin CM5; soluble Fcγ receptor injected at one concentration ([…] to 18 μM); HBS-EP+ pH 7.4, 25°C; Biacore 8K; remark: listed apart in the source
[6] = remark: other sources report otherwise

response [1, 6]: < 1 RU
B1: cynomolgus monkey FcγRIII extracellular domain, C-terminal hexa-His (receptor)
chain: GMRAEDLPKAVVFLEPQWYRVLEKDRVTLKCQGAYSPEDNSTRWFHNESLISSQTSSYFIAAARVNNSGEYRCQTSLSTLSDPVQLEVHIGWLLLQAPRWVFKEEESIHLRCHSWKNTLLHKVTYLQNGKGRKYFHQNSDFYIPKATLKDSGSYFCRGLIGSKNVSSETVNITITQDLAVSSISSFFPPGYQ

mean response [2]: 63.2 RU
mean response [3]: 17 RU
B2: anti-CD52 IgG1 L234A/L235A (LALA) (antibody, V domains shown)
VH: QVQLQESGPGLVRPSQTLSLTCTVSGFTFTDFYMNWVRQPPGRGLEWIGFIRDKAKGYTTEYNPSVKGRVTMLVDTSKNQFSLRLSSVTAADTAVYYCAREGHTAAPFDYWGQGSLVTVSS
VL: DIQMTQSPSSLSASVGDRVTITCKASQNIDKYLNWYQQKPGKAPKLLIYNTNNLQTGVPSRFSGSGSGTDFTFTISSLQPEDIATYYCLQHISRPRTFGQGTKLEIK

mean response [4]: 488 RU
B3: anti-CD52 IgG1 N297Q (aglycosyl) (antibody, V domains shown)
VH: B2 VH
VL: B2 VL

response [1, 6]: < 1 RU
B4: human FcγRIIa H131 extracellular domain, C-terminal hexa-His (independently-made panel), P12318 34-217 (receptor)
chain: QAAAPPKAVLKLEPPWINVLQEDSVTLTCQGARSPESDSIQWFHNGNLIPTHTQPSYRFKANNNDSGEYTCQTGQTSLSDPVHLTVLSEWLVLQTPHLEFQEGETIMLRCHSWKDKPLVKVTFFQNGKSQKFSHLDPTFSIPQANHSHSGDYHCTGNIGYTLFSSKPVTITVQVPSMGSSSPMG

response [1]: < 1 RU
B5: human FcγRIIa R131 extracellular domain, C-terminal hexa-His (independently-made panel), P12318 34-217 (receptor)
chain: B4 chain with H134R
modifications: not checked

response [5]: < 1 RU
B6: mouse FcγRI extracellular domain, C-terminal hexa-His (independently-made panel) (receptor)
chain: EVVNATKAVITLQPPWVSIFQKENVTLWCEGPHLPGDSSTQWFINGTAVQISTPSYSIPEASFQDSGEYRCQIGSSMPSDPVQLQIHNDWLLLQASRRVLTEGEPLALRCHGWKNKLVYNVVFYRNGKSFQFSSDSEVAILKTNLSHSGIYHCSGTGRHRYTSAGVSITVKELFTTPVLRASVSSPFPEGSLVTLNCETNLLLQRPGLQLHFSFYVGSKILEYRNTSSEYHIARAEREDAGFYWCEVATEDSSVLKRSPELELQVLGPQSSAP

response [5]: < 1 RU
B7: mouse FcγRIIb extracellular domain, C-terminal hexa-His (receptor)
chain: THDLPKAVVKLEPPWIQVLKEDTVTLTCEGTHNPGNSSTQWFHNGRSIRSQVQASYTFKATVNDSGEYRCQMEQTRLSDPVDLGVISDWLLLQTPQLVFLEGETITLRCHSWRNKLLNRISFFHNEKSVRYHHYSSNFSIPKANHSHSGDYYCKGSLGRTLHQSKPVTITVQGPKSSRSLP

response [5]: < 1 RU
B8: mouse FcγRIII extracellular domain, C-terminal hexa-His (receptor)
chain: ALPKAVVKLDPPWIQVLKEDMVTLMCEGTHNPGNSSTQWFHNGRSIRSQVQASYTFKATVNDSGEYRCQMEQTRLSDPVDLGVISDWLLLQTPQRVFLEGETITLRCHSWRNKLLNRISFFHNEKSVRYHHYKSNFSIPKANHSHSGDYYCKGSLGSTQHQSKPVTITVQDPATTSSISLVWYHT
